Measured values as given in PMC10652100, “Bacterial RNA-free RNase P: Structural and functional characterization of multiple oligomeric forms of a minimal protein-only ribonuclease P” (The Journal of Biological Chemistry, 2023).

Experiments:
[1] = target: the molecule itself; experiment: SEC; oligomers seen when purifying Aq880 (Superdex 200 pg 16/600; 50 mM Tris pH 8.5, 150 mM NaCl, 1 mM TCEP)
[2] = target: the molecule itself; experiment: native MS; His-tagged Hth1307 in 200 mM ammonium acetate pH 7, nano-electrospray, Q-Exactive UHMR; 500-1000 nM protein
[3] = target: the molecule itself; experiment: crystal structure; lower molecular weight fraction of Hth1307; 2 M ammonium sulfate, 0.1 M Bis-Tris pH 5.5, 4 C; space group C2221, two protomers in the asymmetric unit; tetramer by crystal symmetry
[4] = target: the molecule itself; experiment: SEC; analytical, Superdex 200 Increase 5/150 GL, 50 mM Tris pH 8.5, 150 mM NaCl, 1 mM TCEP; Hth1307 from 93.6 nM upwards; A280

B1: Aquifex aeolicus HARP (Aq880) (enzyme)
chain: MDVFVLDTSVFTNPEIYRTFEEDQRGAMETFIHLALNSRAEFYMPTSVYTEMRKIMDVGELWAEFEMVVKIRSPRRFQLTVPADFLYEFIEELRYRINKGLRIAEEHTREASGCEDVGKLIARLREKYREALRQGILDSKEDVDVLLLAYELDGVLVSADEGLRTWADKIGIKLIDPKNFKNILESLVRHRF
notes: HARP (RNA-free RNase P) of Aquifex aeolicus, Aq880, 23 kDa; gene synthesised by Integrated DNA Technologies; Cloned into pMCSG7 (N-terminal His6 tag and TEV site); the tag was removed with TEV protease, and residues of the site may be left at the N-terminus (surmised); also called HARP from A. aeolicus; Homolog of Aquifex RNase P; source: E. coli BL21 Rosetta DE3, purified (Ni-Sepharose, DEAE, …)
stoichiometry N [1]: 4

B2: His-tagged Hth1307 (enzyme, Hydrogenobacter thermophilus)
chain: MDTFVLDTSVFTNPDVYHQFEEDQLGAIENFISLASHTNANFFMPTSVYYEFTKMVSLGDLAPKFELVVRIRSPRKWGLMVPAEFLYEFIEEVRYRINKGLRIAEEHTKEAGKLAEEEVGRVVNRLREKYREALRAGIIDSKEDVDVLLLSYELDAILVSGDEGLRKWADRVGIKLIDPKNLRYIMENLTKVGR
notes: HARP (RNA-free RNase P) of Hydrogenobacter thermophilus, Hth1307; gene synthesised by Integrated DNA Technologies; Same construct as m2 (pMCSG7, N-terminal His6 and TEV site) with the tag left on; also called His-tagged Hydrogenobacter thermophilus HARP; source: E. coli BL21 Rosetta DE3, purified; not shown: His6, N-terminal, kept; copies: 14
stoichiometry N [2]: 14

B3: Hydrogenobacter thermophilus HARP (Hth1307) (enzyme)
chain: B2 chain
notes: HARP (RNA-free RNase P) of Hydrogenobacter thermophilus, Hth1307; gene synthesised by Integrated DNA Technologies; Cloned into pMCSG7 (N-terminal His6 tag and TEV site); the tag was removed with TEV protease by the general purification protocol; also called Ht HARP; source: E. coli BL21 Rosetta DE3, purified (Ni-Sepharose, DEAE, TEV cleavage, second Ni-Sepharose, SEC); not shown: His6, …
stoichiometry N [3]: 4
stoichiometry N [4]: 14
